Reference: patent US20250228955A1

Target: recombinant HIV-1 trimeric spike (BG505 SOSIP.664) (HIV-1)

B1: ODIN-1 (VHH-72.18 with UL-CDR3 from NC-Cow1 bovine IgG in FR2 loop) (bispecific antibody, V domains shown)
VH: MGWFRQTNKKECPEDYTYNPRCPQQYGWSDCDCMGDRFGGYCRQDGCSNYIHRSTREFVATISWSGGSTYYTDSVKGRFTISRDNAKNTVYLQMNSLKPDDTAVYYCAAAGLGTVVSEWDYDYDYWGQGTQVTVSS
Binder B1 has a Kd of 30 nM.
